{"source": "patent US20080233097A1", "about": "“Phosphorylation Site Of Mitogen-Activated Protein Kinases, Modified Proteins And Applications” (UNIVERSIDAD AUTONOMA DE MADRID, priority 2005, published 2008)", "molecules": {"B1": {"name": "p38T123D: p38α mutant; aspartic acid mimics the constitutively phosphorylated form of threonine 123 (protein, UniProt P47811 2-360, looked up, variant T123D)", "Mitogen-activated protein …": "SQERPTFYRQELNKTIWEVPERYQNLSPVGSGAYGSVCAAFDTKTGHRVAVKKLSRPFQSIIHAKRTYRELRLLKHMKHENVIGLLDVFTPARSLEEFNDVYLVTHLMGADLNNIVKCQKLDDDHVQFLIYQILRGLKYIHSADIIHRDLKPSNLAVNEDCELKILDFGLARHTDDEMTGYVATRWYRAPEIMLNWMHYNQTVDIWSVGCIMAELLTGRTLFPGTDHIDQLKLILRLVGTPGAELLKKISSESARNYIQSLAQMPKMNFANVFIGANPLAVDLLEKMLVLDSDKRITAAQALAHAYFAQYHDPDDEPVADPYDQSFESRDLLIDEWKSLTYDEVISFVPPPLDQEEMES", "modifications": "GST or Flag tag in some forms"}}, "test_system": "MKK6CAM", "assay": "p38 activation by MKK6CAM in situ (anti-phospho-p38) in HEK293 cells", "assay_type": "cell-based, human", "conditions": "HEK293, 150 ng p38 plasmid, 50 ng pCDNA3-MKK6CAM", "method": "In overexpression experiments analogous to those described previously, HEK293 cells, seeded in M6 and always in duplicate, were transfected with: 150 ng of pCDNA3-Flag-p38α WT, or pCDNA3-Flag-p38α T123D and 50 ng of pCDNA3-MKK6CAM, (or empty pCDNA3). p38 activation with the anti-phospho-p38 antibody was evaluated. For each of the two isoforms, the activation by MKK6CAM was in reference to the baseline situation, obtaining a certain activation level. 100% activation was established as the p38α WT activation in each experiment. Data (±SEM) of three independent experiments are shown. A two-sided Student's-t test was carried out and *p<0.0001 was obtained. The right-hand side panels (Western blot) illustrate one of the experiments. […]\nThe HE 293 cells, generally subjected to starvation (medium without serum) of a variable duration: 2 hours in the case of p38 and all night in the case of ERK, were stimulated and, after processing the lysate cells, the immunodetection of the phosphoproteins was carried out with the phospho-specific antibodies of the activation segments of both proteins. […] The quantification of the bands was carried out in a laser densitometer. In all the cases, the values obtained for the bands detected with the anti-phospho-protein antibody were normalized in relation to the total amount of p38 or ERK expressed in the cells. […]"}
{"molecule": "B1", "values": [{"measurement": "activation by MKK6CAM versus Flag-p38WT", "value": "considerable reduction"}]}
